Experimental data taken from patent US20090226421A1 (Genmab, published 2009).

Target: T1, human C1q (human, UniProt P02745 23-245; P02746 28-253; P02747 29-245)
T1 construct: also called first component of the classical complement cascade
Assay: ELISA, antibody coated, C1q detected with rabbit anti-human C1q
Procedure: In short, microtiter ELISA plates (Greiner, Germany) were coated overnight at RT with the test antibodies serially diluted from 10 μg/ml to 0.06 μg/ml in PBS. Plates were emptied and wells were blocked with 200 μl ELISA-diluent per well (0.1 M NaPO₄, 0.1 M NaCl, 0.1% gelatin and 0.05% Tween-20), at RT for 30 minutes. […] After washing the plates (3×) with PBST, wells were incubated with HRP-conjugated swine anti-rabbit IgG-Fc (DAKO, P0300, lot #069) diluted in ELISA diluent (1:2500, 100 μl/well, RT, 1 hour). Thereafter, plates were washed thrice and assays were developed with freshly prepared 1 mg/ml ABTS solution (ABTS: 2,2′-azino-bis[3-ethylbenzthiazoline-6-sulfonic acid]); 2 tablets of 5 mg in 10 ml ABTS buffer, Boehringer Mannheim, Ingelheim, Germany) at RT in the dark for 30 minutes. Absorbance was measured at 405 nm in an ELISA plate reader (Biotek Instruments Inc., Winooski, USA).

T1 sequence (P02745 23-245, chain 1 of 3): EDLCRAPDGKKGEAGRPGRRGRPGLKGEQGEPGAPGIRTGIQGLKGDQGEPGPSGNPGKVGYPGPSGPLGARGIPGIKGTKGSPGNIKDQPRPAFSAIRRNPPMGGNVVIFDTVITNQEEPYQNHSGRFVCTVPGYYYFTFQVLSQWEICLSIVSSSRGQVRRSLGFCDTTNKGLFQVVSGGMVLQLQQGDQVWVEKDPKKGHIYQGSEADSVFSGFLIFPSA
T1 sequence (P02746 28-253, chain 2 of 3): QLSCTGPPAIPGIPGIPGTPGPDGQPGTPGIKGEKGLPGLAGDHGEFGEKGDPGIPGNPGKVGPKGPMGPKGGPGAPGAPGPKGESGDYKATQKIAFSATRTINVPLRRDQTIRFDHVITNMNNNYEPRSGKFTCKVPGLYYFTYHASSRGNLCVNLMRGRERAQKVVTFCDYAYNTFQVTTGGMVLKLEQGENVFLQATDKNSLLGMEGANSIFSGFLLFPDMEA
T1 sequence (P02747 29-245, chain 3 of 3): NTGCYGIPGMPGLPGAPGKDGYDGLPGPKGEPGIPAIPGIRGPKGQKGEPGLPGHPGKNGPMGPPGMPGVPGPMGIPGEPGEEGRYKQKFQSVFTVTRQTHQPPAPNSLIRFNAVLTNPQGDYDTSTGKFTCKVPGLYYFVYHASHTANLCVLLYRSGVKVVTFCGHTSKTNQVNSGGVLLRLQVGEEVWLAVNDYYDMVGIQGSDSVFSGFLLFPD

- binding result: no binding
B1: 7D8-HG (antibody)
heavy: EVQLVESGGGLVQPDRSLRLSCAASGFTFHDYAMHWVRQAPGKGLEWVSTISWNSGTIGYADSVKGRFTISRDNAKNSLYLQMNSLRAEDTALYYCAKDIQYGNYYYGMDVWGQGTTVTVSSASTKGPSVFPLAPCSRSTSESTAALGCLVKDYFPEPVTVSWNSGALTSGVHTFPAVLQSSGLYSLSSVVTVPSSSLGTKTYTCNVDHKPSNTKVDKRVAPEFLGGPSVFLFPPKPKDTLMISRTPEVTCVVVDVSQEDPEVQFNWYVDGVEVHNAKTKPREEQFNSTYRVVSVLTVLHQDWLNGKEYKCKVSNKGLPSSIEKTISKAKGQPREPQVYTLPPSQEEMTKNQVSLTCLVKGFYPSDIAVEWESNGQPENNYKTTPPVLDSDGSFFLYSRLTVDKSRWQEGNVFSCSVMHEALHNHYTQKSLSLSLGK
light: not shown
notes: Half-molecule of one heavy and one light chain (SDS-PAGE, MS 71520 Da); also called HuMab 7D8-HG; hingeless IgG4 anti-CD20
